Laboratory results reported in patent US20040043959A1, “Combination therapies for treating methylthioadenosine phosphorylase deficient cells” (priority 2002, published 2004).

How the values were obtained:
Assay in all cases: MTAP substrate assay, coupled spectrophotometric (adenine, xanthine oxidase)
Assay type in all cases: biochemical, human
Settings in all cases: other: substrate of MTAP, 37° C.
[1] = substrate: CSC[C@H]1O[C@@H](n2cnc3c(N)ncnc32)[C@H](O)[C@@H]1O
Protocol: (§1) An enzymatic assay to determine the activity of MTAP against a given substrate was performed. Human MTAP containing an N-terminal six-histidine tag was expressed in E. coli BL21 DE3 cells. The protein was purified to homogeneity by Ni2+ affinity chromatography. Enzymatic activity was measured using a coupled spectrophotometric assay designed to monitor the reaction product adenine (Savarese, T. M., Crabtree, G. W., and Parks, R. E. Jr., (1980) Biochem. Pharmacol. 30, 189-199). Various concentrations of the indicated 5′-deoxymethylthio adenosine (MTA) or substrate were incubated in assay buffer (40 mM potassium phosphate buffer, 1 mM, and DTT 0.8 units/ml xanthine oxidase coupling enzyme) for 5 minutes at 37° C. The reaction was initiated by the addition of MTAP. The exact concentration of enzyme used varied for each substrate tested and ranged from 2 nM to 500 nM. Activity as a function of enzyme concentration was determined for each substrate tested to ensure that the appropriate enzyme concentration was used. Activity was detected by continuous monitoring of absorbance at 305 nm for 10 minutes (ΔE=15,500 M^−1).
(§2) Library compounds (10 and 50 uM) were tested using the assay described above with 2 nM MTAP enzyme. The resultant initial velocities are reported as a percentage of the initial velocity observed when MTA is the substrate. MTA controls, 10 and 50 uM concentrations, were run on each plate alongside the library compounds.

[2] = substrate: Nc1ncnc2c1ncn2[C@@H]1O[C@H](CSCCO)[C@@H](O)[C@H]1O
Protocol: as §1, §2

[3] = substrate: Nc1ncnc2c1ncn2[C@@H]1O[C@H](CSc2ccc(C(F)(F)F)cc2)[C@@H](O)[C@H]1O
Protocol: as §1, §2

[4] = substrate: Cc1ccccc1SC[C@H]1O[C@@H](n2cnc3c(N)ncnc32)[C@H](O)[C@@H]1O
Protocol: as §1, §2

[5] = substrate: Nc1ncnc2c1ncn2[C@@H]1O[C@H](CNCCO)[C@@H](O)[C@H]1O
Protocol: as §1, §2

[6] = substrate: Nc1ncnc2c1ncn2[C@@H]1O[C@H](COc2ccccn2)[C@@H](O)[C@H]1O
Protocol: as §1, §2

[7] = substrate: CCCCSC[C@H]1O[C@@H](n2cnc3c(N)ncnc32)[C@H](O)[C@@H]1O
Protocol: as §1, §2

[8] = substrate: Nc1ncnc2c1ncn2[C@@H]1O[C@H](CSCc2ccccc2)[C@@H](O)[C@H]1O
Protocol: as §1, §2

[9] = substrate: CSC[C@H]1O[C@@H](n2cnc3c(N)ncnc32)[C@@H](O)[C@@H]1O
Protocol: as §1, §2

[10] = substrate: Nc1ncnc2c1ncn2[C@@H]1O[C@H](CSc2ccccc2)[C@@H](O)[C@H]1O
Protocol: as §1, §2

[11] = substrate: Nc1ncnc2c1ncn2[C@@H]1O[C@H](CSCc2ccc(F)cc2)[C@@H](O)[C@H]1O
Protocol: as §1, §2

[12] = substrate: COc1ccc(OC[C@H]2O[C@@H](n3cnc4c(N)ncnc43)[C@H](O)[C@@H]2O)cc1
Protocol: as §1, §2

[13] = substrate: CC(C)CSC[C@@H]1O[C@H](n2cnc3c(N)ncnc32)[C@H](O)[C@@H]1O
Protocol: as §1, §2

[14] = substrate: Nc1ncnc2c1ncn2[C@@H]1O[C@H](CSCCc2ccccn2)[C@@H](O)[C@H]1O
Protocol: as §1, §2

[15] = substrate: Nc1ncnc2c1ncn2[C@@H]1O[C@H](CSc2ncccn2)[C@@H](O)[C@H]1O
Protocol: as §1, §2

[16] = substrate: Nc1ncnc2c1ncn2[C@@H]1O[C@H](CNCCc2ccccn2)[C@@H](O)[C@H]1O
Protocol: as §1, §2

B1: Human MTAP (Homo sapiens) (protein)
chain: MASGTTTTAVKIGIIGGTGLDDPEILEGRTEKYVDTPFGKPSDALILGKIKNVDCVLLARHGRQHTIMPSKVNYQANIWALKEEGCTHVIVTTACGSLREEIQPGDIVIIDQFIDRTTMRPQSFYDGSHSCARGVCHIPMAEPFCPKTREVLIETAKKLGLRCHSKGTMVTIEGPRFSSRAESFMFRTWGADVINMTTVPEVVLAKEAGICYASIAMATDYDCWKEHEEAVSVDRVLKTLKENANKAKSLLLTTIPQIGSTEWSETLHNLKNMAQFSVLLPRH
notes: six-histidine tag (His6) (N); made in house; host or cells: E. coli BL21 DE3
B1 was tested, and the Km [1] was 2.233 µM, the kcat [1] was 3.97 s⁻¹ and the Km [2] was 25 µM. For the same protein, the kcat [2] was 1.46 s⁻¹, the Km [3] was 1.7 µM and the kcat [3] was 0.29 s⁻¹. It also gave a Km [4] of 5.6 µM, a kcat [4] of 0.175 s⁻¹ and a Km [5] of 758 µM. For the same protein, the kcat [5] was 0.029 s⁻¹, the Km [6] was 29 µM and the kcat [6] was 3.82 s⁻¹. For the same protein, the Km [7] was 3.3 µM, the kcat [7] was 5.4 s⁻¹ and the Km [8] was 4.65 µM. For the same protein, the kcat [8] was 2.5 s⁻¹, the Km [9] was 106 µM and the kcat [9] was 0.006 s⁻¹. It also gave a Km [10] of 3 µM, a kcat [10] of 1.5 s⁻¹ and a Km [11] of 5.4 µM. For the same protein, the kcat [11] was 2.24 s⁻¹, the Km [12] was 10 µM and the kcat [12] was 0.54 s⁻¹. It also gave a Km [13] of 3.1 µM, a kcat [13] of 2.3 s⁻¹ and a Km [14] of 10.2 µM. The kcat [14] was 1.01 s⁻¹, the Km [15] was 7 µM and the kcat [15] was 4.1 s⁻¹. For the same protein, the Km [16] was 1300 µM and the kcat [16] was 0.018 s⁻¹.
